Molecular target: HR-C1 peptide (SARS-CoV (Urbani strain)) (UniProt P59594)
Assay: SDS-PAGE of samples not heated

HR-C1 peptide (from UniProt P59594 1147-1185)
stoichiometry N: 3
